Test results taken from patent publication CN103319600A (MILITARY MEDICINE INST OF NANJING MILITARY REGION, dated 2013).

Target: T1, 阴性对照蛋白BSA (UniProt P02769 25-607)
T1 construct: Negative control protein
Assay: ELISA

T1 sequence (P02769 25-607 limits assumed): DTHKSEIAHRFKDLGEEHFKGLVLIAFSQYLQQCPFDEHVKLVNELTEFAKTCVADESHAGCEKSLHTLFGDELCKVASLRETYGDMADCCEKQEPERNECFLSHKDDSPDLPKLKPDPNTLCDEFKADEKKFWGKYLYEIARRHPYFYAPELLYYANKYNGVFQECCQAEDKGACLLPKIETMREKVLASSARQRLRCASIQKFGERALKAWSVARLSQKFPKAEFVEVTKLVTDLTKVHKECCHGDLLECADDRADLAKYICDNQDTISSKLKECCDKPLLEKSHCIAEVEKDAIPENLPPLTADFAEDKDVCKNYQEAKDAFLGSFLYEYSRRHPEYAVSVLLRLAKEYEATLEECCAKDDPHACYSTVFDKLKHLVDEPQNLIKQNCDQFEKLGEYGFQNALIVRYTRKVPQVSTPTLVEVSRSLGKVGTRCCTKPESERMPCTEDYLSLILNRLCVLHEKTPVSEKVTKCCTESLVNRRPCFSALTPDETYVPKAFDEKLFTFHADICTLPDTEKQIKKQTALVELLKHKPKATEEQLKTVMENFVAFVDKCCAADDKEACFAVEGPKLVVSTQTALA

B1: 人源抗TLR4抗体Fab (Fab, V domains shown)
VH: EVQLVESGGGLVKPGRSLRLSCAASGFTFSSYAMHWVRQAPGKGLEWVAVISYDGSNKYYADSVKGRFTISRDNSENTLYLQMNSLRAEDTAVYYCAAYSSSSWFDPWGQGTLVTVSP
VL: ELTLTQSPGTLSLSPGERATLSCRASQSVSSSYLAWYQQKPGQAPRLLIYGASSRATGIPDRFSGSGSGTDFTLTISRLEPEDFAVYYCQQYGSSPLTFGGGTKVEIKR
notes: also called 抗TLR4基因工程抗体Fab; 抗TLR4的Fab
  binding result: no binding
